# Columns and labels:
# [1] = SDD-AGE of MAVS aggregates, HEK293; conditions: glycan lost; control: wild type
# [2] = cycloheximide chase, HEK293 and A549; conditions: glycan gained; control: without Thiamet-G
Protein,oligomerisation [1],degradation_or_half_life [2]
mitochondrial antiviral signaling protein (MAVS): S366A (protein) parent chain: MPFAEDKTYKYICRNFSNFCNVDVVEILPYLPCLTARDQDRLRATCTLSGNRDTLWHLFNTLQRRPGWVEYFIAALRGCELVDLADEVASVYQSYQPRTSDRPPDPLEPPSLPAERPGPPTPAAAHSIPYNSCREKEPSYPMPVQETQAPESPGENSEQALQTLSPRAIPRNPDGGPLESSSDLAALSPLTSSGHQEQDTELGSTHTAGATSSLTPSRGPVSPSVSFQPLARSTPRASRLPGPTGSVVSTGTSFSSSSPGLASAGAAEGKQGAESDQAEPIICSSGAEAPANSLPSKVPTTLMPVNTVALKVPANPASVSTVPSKLPTSSKPPGAVPSNALTNPAPSKLPINSTRAGMVPSKVPTSMVLTKVSASTVPTDGSSRNEETPAAPTPAGATGGSSAWLDSSSENRGLGSELSKPGVLASQVDSPFSGCFEDLAISASTSLGMGPCHGPEENEYKSEGTFGIHVAENPSIQLLEGNPGPPADPDGGPRPQADRKFQEREVPCHRPSPGALWLQVAVTGVLVVTLLVVLYRRRLH,no change,
mitochondrial antiviral signaling protein (MAVS): Thiamet-G (protein) parent chain: MPFAEDKTYKYICRNFSNFCNVDVVEILPYLPCLTARDQDRLRATCTLSGNRDTLWHLFNTLQRRPGWVEYFIAALRGCELVDLADEVASVYQSYQPRTSDRPPDPLEPPSLPAERPGPPTPAAAHSIPYNSCREKEPSYPMPVQETQAPESPGENSEQALQTLSPRAIPRNPDGGPLESSSDLAALSPLTSSGHQEQDTELGSTHTAGATSSLTPSRGPVSPSVSFQPLARSTPRASRLPGPTGSVVSTGTSFSSSSPGLASAGAAEGKQGAESDQAEPIICSSGAEAPANSLPSKVPTTLMPVNTVALKVPANPASVSTVPSKLPTSSKPPGAVPSNALTNPAPSKLPINSTRAGMVPSKVPTSMVLTKVSASTVPTDGSSRNEETPAAPTPAGATGGSSAWLDSSSENRGLGSELSKPGVLASQVDSPFSGCFEDLAISASTSLGMGPCHGPEENEYKSEGTFGIHVAENPSIQLLEGNPGPPADPDGGPRPQADRKFQEREVPCHRPSPGALWLQVAVTGVLVVTLLVVLYRRRLH,,no change

# — paper PMC7884448
